The text below walks through data of article PMC8179448.

The target of test [1] is 14-3-3ζ (UniProt P63104). Nature of the test: fluorescence polarisation. A general note: Polarisation of emitted light reports the rotation of a fluorescent probe.
The target of test [2] is 14-3-3ζ (UniProt P63104). Nature of the test: fluorescence polarisation. The source holds these as a separate data set.
Test [3] deals with 14-3-3ζ (UniProt P63104). Nature of the test: fluorescence polarisation. The source holds these as a separate data set.
For test [4], the target named is 14-3-3ζ (UniProt P63104). Nature of the test: fluorescence polarisation. The source holds these as a separate data set.
In test [5] the target is 14-3-3ζ (UniProt P63104). Nature of the test: fluorescence polarisation titration, FAM-labelled peptides. The conditions noted are these: for binding against the reference: reference: 240pi.
Test [6] deals with 14-3-3ζ (UniProt P63104). Nature of the test: ITC. Particulars: for binding against the reference: reference: 240pi.
The target of another test is T1, 14-3-3ζ protein, P63104.
T1 chain: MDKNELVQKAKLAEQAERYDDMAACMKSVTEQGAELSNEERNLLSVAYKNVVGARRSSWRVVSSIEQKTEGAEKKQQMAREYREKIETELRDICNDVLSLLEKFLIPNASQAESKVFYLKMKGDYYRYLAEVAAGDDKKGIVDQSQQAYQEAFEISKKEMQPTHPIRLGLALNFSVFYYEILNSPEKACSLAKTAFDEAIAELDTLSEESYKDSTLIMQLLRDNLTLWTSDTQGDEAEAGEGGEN
Briefly: native gel or EMSA + cross-linking + other: MALDI-TOF. The conditions noted are these: remark: other sources report otherwise.

Where two headings read alike, the source gives them in different places.

The term Kd denotes the free concentration of one partner at which half of the binding sites on the other are occupied at equilibrium, for simple one-to-one binding. Lower therefore signals higher affinity. One may read the koff as a measure of how fast the partners let go of each other. High values mean a short-lived complex, low ones a long-lived complex. In the test with 14-3-3ζ [1], “FAM-labeled Rnd3 C-terminal peptide (207–241) 218_240pi (from UniProt P61587 207-241)” yielded a Kd of 400 nM, a ka,1 (two-step fit assuming pS218 binds first; rejected by the paper) of 16.7 μM^−1 s^−1, a ka,2 (second step of the two-step fit) of 66.2 s⁻¹ and a ka,2 (two-step fit assuming pS218 binds first; rejected by the paper) of 29.8 s^−1. In the test with 14-3-3ζ [1], this molecule displayed a kd,1 (two-step fit assuming pS218 binds first; rejected by the paper) of 53.8 s^−1, a kd,2 (two-step fit assuming pS218 binds first; rejected by the paper) of 8.64 s^−1 and a koff of 9.69 s⁻¹. Also, the koff in the test with 14-3-3ζ [2] is 8.42 s⁻¹. In the test with 14-3-3ζ [3], this molecule gave a ka,1 (first step of the two-step fit) of 5.75e+07 M⁻¹ s⁻¹, a ka,2 (second step of the two-step fit) of 62.2 s⁻¹, a kd,1 (first step of the two-step fit) of 35.2 s⁻¹ and a kd,2 (second step of the two-step fit) of 38.9 s⁻¹.

What is called kon is the second-order rate constant of association. The low end stands for slow association, the high end for fast association. Regarding “FAM-labeled Rnd3 C-terminal peptide (207–241) 240pi (from UniProt P61587 207-241)”, in the test with 14-3-3ζ [1], the Ka is 290000 M⁻¹, the Kd stood at 3390 nM and the koff is 63.9 s⁻¹. In the test with 14-3-3ζ [3], the Kd is 1490 nM, the koff is 44.2 s⁻¹ and the kon came to 2.96e+07 M⁻¹ s⁻¹.

In the test with 14-3-3ζ [1], “FAM-labeled Rnd3 C-terminal peptide (207–241) 240piFar (from UniProt P61587 207-241)” registered a Ka of 3.13e+06 M⁻¹, a dissociation constant (Kd) of 320 nM, a ka,1 (two-step fit assuming pS240 binds first; rejected by the paper) of 31.1 μM^−1 s^−1 and a ka,2 (two-step fit assuming pS240 binds first; rejected by the paper) of 60.2 s^−1. Besides, in the test with 14-3-3ζ [1], the kd,1 (two-step fit assuming pS240 binds first; rejected by the paper) is 13 s^−1, the kd,2 (two-step fit assuming pS240 binds first; rejected by the paper) was found to be 345 s^−1 and the koff came out at 10.9 s⁻¹. This molecule gave a koff in the test with 14-3-3ζ [4] of 8.02 s⁻¹. In the test with 14-3-3ζ [3], the ka,1 (first step of the two-step fit) turned out to be 3.92e+07 M⁻¹ s⁻¹, the ka,2 (second step of the two-step fit) was 25.6 s⁻¹, the kd,1 (first step of the two-step fit) came out at 19.9 s⁻¹ and the kd,2 (second step of the two-step fit) is 54.5 s⁻¹.

The molecule “FAM-labeled Rnd3 C-terminal peptide (207–241) no_piFar (from UniProt P61587 207-241)” showed a Ka with 14-3-3ζ [1] of 130000 M⁻¹.

Take “Rnd3 207-241 (from UniProt P61587) 210_240pi”: the “binding against the reference” value with 14-3-3ζ [5] (sites S210) and with 14-3-3ζ [6] (sites S210) was “stronger” in each case.

In the case of “Rnd3 207-241 (from UniProt P61587) 218_240pi”, the “binding against the reference” value in the test with 14-3-3ζ [6] (sites S218) is “stronger”.

“Rnd3 207-241 (from UniProt P61587) 240piFar”: the “other: association constant K” value in the test with 14-3-3ζ [5] (reference: no_piFar, sites S240) was “stronger; reference 0.13”.

Take “Rnd3 207-241 (from UniProt P61587) all_pi”: the “binding against the reference” value in the test with 14-3-3ζ [5] (sites S210,S218) and with 14-3-3ζ [6] (sites S210,S218) was “stronger” in each case.

Regarding “Rnd3 C-terminal peptide (207–241) 210_240pi (from UniProt P61587 207-241)”, in the test with 14-3-3ζ [6], the dH was -8.76 kcal/mol and the stoichiometry N (peptide per 14-3-3ζ) came to 0.5.

Take “Rnd3 C-terminal peptide (207–241) 210_240piFar (from UniProt P61587 207-241)”: in the test with 14-3-3ζ [6], the dH was -7.35 kcal/mol and the stoichiometry N (peptide per 14-3-3ζ) is 0.5.

For “Rnd3 C-terminal peptide (207–241) 218_240pi (from UniProt P61587 207-241)”, in the test with 14-3-3ζ [6], the dH was -6.22 kcal/mol and the stoichiometry N (peptide per 14-3-3ζ) amounted to 0.5.

With “Rnd3 C-terminal peptide (207–241) 218_240piFar (from UniProt P61587 207-241)”, in the test with 14-3-3ζ [6], the dH was -5.58 kcal/mol and the stoichiometry N (peptide per 14-3-3ζ) worked out at 0.5.

Consider “Rnd3 C-terminal peptide (207–241) 240pi (from UniProt P61587 207-241)”, for which, in the test with 14-3-3ζ [6], the dH is -3.53 kcal/mol and the stoichiometry N (peptide per 14-3-3ζ) is 1.

Regarding “Rnd3 C-terminal peptide (207–241) 240piFar (from UniProt P61587 207-241)”, in the test with 14-3-3ζ [6], the dH was -3.56 kcal/mol and the stoichiometry N (peptide per 14-3-3ζ) worked out at 1.

Regarding “Rnd3 C-terminal peptide (207–241) all_pi, triply phosphorylated (from UniProt P61587 207-241)”, in the test with 14-3-3ζ [6], the dH is -7.15 kcal/mol and the stoichiometry N (peptide per 14-3-3ζ) turned out to be 0.5.

As to “Rnd3 C-terminal peptide (207–241) all_piFar (from UniProt P61587 207-241)”, in the test with 14-3-3ζ [6], the dH was -6.26 kcal/mol and the stoichiometry N (peptide per 14-3-3ζ) stood at 0.5.

Consider “Rnd3 C-terminal peptide (207–241) no_piFar, farnesylated, without phosphate (from UniProt P61587 207-241)”, for which, in the test with 14-3-3ζ [6], the dH was 0.703 kcal/mol.

B1: 14-3-3ζ protein, P63104 1-245 (natural protein)
chain: MDKNELVQKAKLAEQAERYDDMAACMKSVTEQGAELSNEERNLLSVAYKNVVGARRSSWRVVSSIEQKTEGAEKKQQMAREYREKIETELRDICNDVLSLLEKFLIPNASQAESKVFYLKMKGDYYRYLAEVAAGDDKKGIVDQSQQAYQEAFEISKKEMQPTHPIRLGLALNFSVFYYEILNSPEKACSLAKTAFDEAIAELDTLSEESYKDSTLIMQLLRDNLTLWTSDTQGDEAEAGEGGEN
As usually defined, the stoichiometry N is a count of units in the complex or per binding partner. On to B1, for which, in the test with 14-3-3ζ protein, P63104, the stoichiometry N was determined as 2.
